Source: publication doi:10.1101/2021.04.26.441525 (bioRxiv, 2021)

Target: the molecule itself
Assay: crystal structure

B1: BT_1526 myo-inositol phosphate synthase (MIPS) of Bacteroides thetaiotaomicron VPI-5482 (enzyme, UniProt Q8A7J8 1-429, looked up)
chain: MKQEIKPATGRLGVLVVGVGGAVATTMIVGTLASRKGLAKPIGSITQLATMRMENNEEKLIKDVVPLTDLNDIVFGGWDIFPDNAYEAAMYAEVLKEKDLNGVKDELEAIKPMPAAFDHNWAKRLNGTHIKKAATRWEMVEQLRQDIRDFKAANNCERVVVLWAASTEIYIPLSDEHMSLAALEKAMKDNNTEVISPSMCYAYAAIAEDAPFVMGAPNLCVDTPAMWEFSKQKNVPISGKDFKSGQTLMKTVLAPMFKTRMLGVNGWFSTNILGNRDGEVLDDPDNFKTKEVSKLSVIDTIFEPEKYPDLYGDVYHKVRINYYPPRKDNKEAWDNIDIFGWMGYPMEIKVNFLCRDSILAAPIALDLVLFSDLAMRAGMCGIQTWLSFFCKSPMHDFEHQPEHDLFTQWRMVKQTLRNMIGEKEPDYLA
  stoichiometry N: 4
